Publication PMC9482650, “Quantitative fragmentomics allow affinity mapping of interactomes” (Nature Communications, 2022)

Columns and labels:
Experiment in all cases: holdup assay
Design in all cases: key: below the threshold = too weak to quantify, mostly under pKd 3.1 to 4
NHERF2_2, Q15599 = molecular target: NHERF2_2, Q15599
DVL3, Q92997 = molecular target: T1, DVL3, Q92997
T1 sequence (Q92997 244-331, limits assumed, looked up): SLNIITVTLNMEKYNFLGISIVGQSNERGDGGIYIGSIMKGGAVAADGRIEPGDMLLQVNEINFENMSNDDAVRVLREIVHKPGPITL

SCRIB_1, Q14160 = molecular target: SCRIB_1, Q14160
Chain of SCRIB_1, Q14160 (Q14160 718-814): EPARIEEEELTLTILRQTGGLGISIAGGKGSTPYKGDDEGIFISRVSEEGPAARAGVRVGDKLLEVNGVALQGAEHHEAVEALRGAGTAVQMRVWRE

SNTA1, Q13424 = molecular target: T2, SNTA1, Q13424
T2 sequence (Q13424 82-180, limits assumed, looked up): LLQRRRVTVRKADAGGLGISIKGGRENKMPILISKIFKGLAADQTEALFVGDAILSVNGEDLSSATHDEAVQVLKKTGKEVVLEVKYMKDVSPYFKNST

GRIP2_6, Q9C0E4 = molecular target: GRIP2_6, Q9C0E4
Chain of GRIP2_6, Q9C0E4 (Q9C0E4 648-740): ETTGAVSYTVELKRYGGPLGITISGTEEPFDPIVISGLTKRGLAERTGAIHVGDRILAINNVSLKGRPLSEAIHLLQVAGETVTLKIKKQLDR

DLG3_3, Q92796 = molecular target: T3, DLG3_3, Q92796
T3 sequence (Q92796 374-475, limits assumed, looked up): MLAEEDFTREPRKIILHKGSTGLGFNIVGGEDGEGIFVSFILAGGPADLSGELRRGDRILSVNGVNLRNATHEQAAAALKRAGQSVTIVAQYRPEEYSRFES

SIPA1L2, Q9P2F8 = molecular target: T4, SIPA1L2, Q9P2F8
T4 sequence (Q9P2F8 945-1036, limits assumed, looked up): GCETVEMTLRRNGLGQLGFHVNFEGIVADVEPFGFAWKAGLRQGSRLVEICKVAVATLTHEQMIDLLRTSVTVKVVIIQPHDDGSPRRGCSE

FRMPD4, Q14CM0 = molecular target: FRMPD4, Q14CM0
Chain of FRMPD4, Q14CM0 (Q14CM0 67-160): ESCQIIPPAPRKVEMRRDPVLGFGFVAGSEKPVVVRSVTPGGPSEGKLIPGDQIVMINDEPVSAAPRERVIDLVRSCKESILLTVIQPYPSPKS

LIN7B, Q9HAP6 = molecular target: T5, LIN7B, Q9HAP6
T5 sequence (Q9HAP6 88-185, limits assumed, looked up): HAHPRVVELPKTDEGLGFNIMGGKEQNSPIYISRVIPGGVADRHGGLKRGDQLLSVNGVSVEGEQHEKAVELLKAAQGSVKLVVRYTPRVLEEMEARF

ARHGEF11, O15085 = molecular target: T6, ARHGEF11, O15085
T6 sequence (O15085 42-136, limits assumed, looked up): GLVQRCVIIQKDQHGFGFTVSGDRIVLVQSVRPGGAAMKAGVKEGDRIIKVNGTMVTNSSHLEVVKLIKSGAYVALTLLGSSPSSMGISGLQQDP

HTRA1, Q92743 = molecular target: HTRA1, Q92743
Chain of HTRA1, Q92743 (Q92743 360-477): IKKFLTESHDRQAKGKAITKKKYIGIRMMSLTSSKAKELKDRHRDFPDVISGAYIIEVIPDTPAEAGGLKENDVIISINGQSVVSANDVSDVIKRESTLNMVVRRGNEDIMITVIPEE

HTRA2, O43464 = molecular target: HTRA2, O43464
Chain of HTRA2, O43464 (O43464 355-458): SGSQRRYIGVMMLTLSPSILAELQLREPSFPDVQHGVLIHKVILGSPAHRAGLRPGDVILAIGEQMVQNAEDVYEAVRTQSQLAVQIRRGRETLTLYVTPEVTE

MPP2, Q14168 = molecular target: T7, MPP2, Q14168
T7 sequence (Q14168 180-250, limits assumed, looked up): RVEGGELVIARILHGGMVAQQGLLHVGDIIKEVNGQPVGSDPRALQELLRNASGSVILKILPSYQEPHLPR

GRASP, Q7Z6J2 = molecular target: GRASP, Q7Z6J2
Chain of GRASP, Q7Z6J2 (Q7Z6J2 96-193): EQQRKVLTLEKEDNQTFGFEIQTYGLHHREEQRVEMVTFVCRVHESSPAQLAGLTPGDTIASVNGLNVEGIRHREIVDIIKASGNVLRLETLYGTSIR

NOS1, P29475 = molecular target: NOS1, P29475
Chain of NOS1, P29475 (P29475 9-101): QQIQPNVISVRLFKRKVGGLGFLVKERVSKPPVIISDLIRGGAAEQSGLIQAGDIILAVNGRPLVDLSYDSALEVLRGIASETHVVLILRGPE

IL16_1, Q14005 = molecular target: IL16_1, Q14005
Chain of IL16_1, Q14005 (Q14005 210-306): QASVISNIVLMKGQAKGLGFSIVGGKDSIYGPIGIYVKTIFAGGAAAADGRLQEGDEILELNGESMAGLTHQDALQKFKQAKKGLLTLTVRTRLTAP

PDLIM1, O00151 = molecular target: PDLIM1, O00151
Chain of PDLIM1, O00151 (O00151 1-87): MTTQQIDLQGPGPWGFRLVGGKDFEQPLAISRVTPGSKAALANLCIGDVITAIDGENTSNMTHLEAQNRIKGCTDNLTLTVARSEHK

APBA2_2, Q99767 = molecular target: T8, APBA2_2, Q99767
T8 sequence (Q99767 654-744, limits assumed, looked up): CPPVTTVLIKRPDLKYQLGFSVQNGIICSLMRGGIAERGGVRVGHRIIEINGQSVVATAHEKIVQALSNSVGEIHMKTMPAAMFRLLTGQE

ARHGAP21, Q5T5U3 = molecular target: T9, ARHGAP21, Q5T5U3
T9 sequence (Q5T5U3 45-169, limits assumed, looked up): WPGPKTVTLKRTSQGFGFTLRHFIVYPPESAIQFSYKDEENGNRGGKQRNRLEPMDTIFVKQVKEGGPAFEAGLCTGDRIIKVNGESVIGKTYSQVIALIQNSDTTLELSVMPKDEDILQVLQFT

LIN7A, O14910 = molecular target: T10, LIN7A, O14910
T10 sequence (O14910 103-200, limits assumed, looked up): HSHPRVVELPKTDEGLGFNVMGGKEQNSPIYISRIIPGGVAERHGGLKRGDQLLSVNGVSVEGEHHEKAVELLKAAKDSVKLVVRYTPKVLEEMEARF

MAGI2_2, Q86UL8 = molecular target: MAGI2_2, Q86UL8
Chain of MAGI2_2, Q86UL8 (Q86UL8 410-522): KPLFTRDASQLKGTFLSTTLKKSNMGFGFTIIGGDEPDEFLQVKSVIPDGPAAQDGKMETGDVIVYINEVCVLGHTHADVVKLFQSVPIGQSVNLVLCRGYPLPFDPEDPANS

PARD3B_1, Q8TEW8 = molecular target: T11, PARD3B_1, Q8TEW8
T11 sequence (Q8TEW8 196-299, limits assumed, looked up): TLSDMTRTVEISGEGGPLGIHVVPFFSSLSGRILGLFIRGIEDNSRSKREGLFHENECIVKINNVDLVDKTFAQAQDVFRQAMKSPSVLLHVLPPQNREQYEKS

MAST1, Q9Y2H9 = molecular target: MAST1, Q9Y2H9
Chain of MAST1, Q9Y2H9 (Q9Y2H9 962-1065): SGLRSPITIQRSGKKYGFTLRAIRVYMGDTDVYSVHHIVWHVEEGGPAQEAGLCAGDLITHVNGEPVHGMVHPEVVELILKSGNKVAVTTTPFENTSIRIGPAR

LNX2_3, Q8N448 = molecular target: T12, LNX2_3, Q8N448
T12 sequence (Q8N448 463-564, limits assumed, looked up): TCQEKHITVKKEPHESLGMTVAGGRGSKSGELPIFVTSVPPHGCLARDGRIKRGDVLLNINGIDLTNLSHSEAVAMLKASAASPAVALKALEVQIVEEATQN

CASK, O14936 = molecular target: CASK, O14936
Chain of CASK, O14936 (O14936 487-570): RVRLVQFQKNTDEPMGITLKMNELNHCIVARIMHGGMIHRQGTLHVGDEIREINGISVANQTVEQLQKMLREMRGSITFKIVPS

[1] = plain residues with an end cap or a label only (N-terminal biotin on a linker: ado-ado)
[2] = plain residues with an end cap or a label only (N-terminal biotin on a linker: ahx)

Chain of NHERF2_2, Q15599 (Q15599 142-238): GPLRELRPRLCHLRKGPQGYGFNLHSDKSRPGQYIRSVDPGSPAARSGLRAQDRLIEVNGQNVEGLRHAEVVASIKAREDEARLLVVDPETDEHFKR

## EKPIDSETKM [SLC1A3, P43003]
NHERF2_2, Q15599; [1]
  pKd: 4.47
DVL3, Q92997; [1]
  pKd: below the threshold
SCRIB_1, Q14160; [1]
  pKd: 3.5
SNTA1, Q13424; [1]
  pKd: below the threshold
GRIP2_6, Q9C0E4; [1]
  pKd: below the threshold
DLG3_3, Q92796; [1]
  pKd: below the threshold
SIPA1L2, Q9P2F8; [1]
  pKd: below the threshold
FRMPD4, Q14CM0; [1]
  pKd: below the threshold
LIN7B, Q9HAP6; [1]
  pKd: below the threshold
ARHGEF11, O15085; [1]
  pKd: below the threshold
HTRA1, Q92743; [1]
  pKd: below the threshold
HTRA2, O43464; [1]
  pKd: below the threshold
MPP2, Q14168; [1]
  pKd: below the threshold
GRASP, Q7Z6J2; [1]
  pKd: below the threshold
NOS1, P29475; [1]
  pKd: below the threshold
IL16_1, Q14005; [1]
  pKd: below the threshold
PDLIM1, O00151; [1]
  pKd: below the threshold
APBA2_2, Q99767; [1]
  pKd: below the threshold
ARHGAP21, Q5T5U3; [1]
  pKd: below the threshold
LIN7A, O14910; [1]
  pKd: below the threshold
MAGI2_2, Q86UL8; [1]
  pKd: below the threshold
PARD3B_1, Q8TEW8; [1]
  pKd: below the threshold
MAST1, Q9Y2H9; [1]
  pKd: 4.67
LNX2_3, Q8N448; [1]
  pKd: below the threshold
CASK, O14936; [1]
  pKd: below the threshold

## DAAHHDESNC [FMNL3, Q8IVF7]
NHERF2_2, Q15599; [1]
  pKd: below the threshold
DVL3, Q92997; [1]
  pKd: below the threshold
SCRIB_1, Q14160; [1]
  pKd: below the threshold
SNTA1, Q13424; [1]
  pKd: below the threshold
GRIP2_6, Q9C0E4; [1]
  pKd: below the threshold
DLG3_3, Q92796; [1]
  pKd: below the threshold
SIPA1L2, Q9P2F8; [1]
  pKd: below the threshold
FRMPD4, Q14CM0; [1]
  pKd: below the threshold
LIN7B, Q9HAP6; [1]
  pKd: below the threshold
ARHGEF11, O15085; [1]
  pKd: below the threshold
HTRA1, Q92743; [1]
  pKd: 3.76
HTRA2, O43464; [1]
  pKd: below the threshold
MPP2, Q14168; [1]
  pKd: below the threshold
GRASP, Q7Z6J2; [1]
  pKd: below the threshold
NOS1, P29475; [1]
  pKd: below the threshold
IL16_1, Q14005; [1]
  pKd: below the threshold
PDLIM1, O00151; [1]
  pKd: below the threshold
APBA2_2, Q99767; [1]
  pKd: below the threshold
ARHGAP21, Q5T5U3; [1]
  pKd: below the threshold
LIN7A, O14910; [1]
  pKd: below the threshold
MAGI2_2, Q86UL8; [1]
  pKd: below the threshold
PARD3B_1, Q8TEW8; [1]
  pKd: below the threshold
MAST1, Q9Y2H9; [1]
  pKd: below the threshold
LNX2_3, Q8N448; [1]
  pKd: below the threshold
CASK, O14936; [1]
  pKd: below the threshold

## KEYDDELTFF [USH1C, Q9Y6N9]
NHERF2_2, Q15599; [2]
  pKd: 5.32
DVL3, Q92997; [2]
  pKd: 3.62
SCRIB_1, Q14160; [2]
  pKd: below the threshold
SNTA1, Q13424; [2]
  pKd: 3.49
GRIP2_6, Q9C0E4; [2]
  pKd: below the threshold
DLG3_3, Q92796; [2]
  pKd: below the threshold
SIPA1L2, Q9P2F8; [2]
  pKd: below the threshold
FRMPD4, Q14CM0; [2]
  pKd: 4.42
LIN7B, Q9HAP6; [2]
  pKd: below the threshold
ARHGEF11, O15085; [2]
  pKd: below the threshold
HTRA1, Q92743; [2]
  pKd: 4.3
HTRA2, O43464; [2]
  pKd: below the threshold
MPP2, Q14168; [2]
  pKd: below the threshold
GRASP, Q7Z6J2; [2]
  pKd: 4.41
NOS1, P29475; [2]
  pKd: below the threshold
IL16_1, Q14005; [2]
  pKd: below the threshold
PDLIM1, O00151; [2]
  pKd: below the threshold
APBA2_2, Q99767; [2]
  pKd: below the threshold
ARHGAP21, Q5T5U3; [2]
  pKd: 3.87
LIN7A, O14910; [2]
  pKd: below the threshold
MAGI2_2, Q86UL8; [2]
  pKd: below the threshold
PARD3B_1, Q8TEW8; [2]
  pKd: 4.52
MAST1, Q9Y2H9; [2]
  pKd: 4.52
LNX2_3, Q8N448; [2]
  pKd: below the threshold
CASK, O14936; [2]
  pKd: below the threshold
